The values below are quoted from earlier work in article PMC11394293.

In this data set the target is s-Klotho KL1/KL2 (Homo sapiens) (UniProt Q9UEF7).
Sequence of UniProt Q9UEF7 (Q9UEF7 34-981): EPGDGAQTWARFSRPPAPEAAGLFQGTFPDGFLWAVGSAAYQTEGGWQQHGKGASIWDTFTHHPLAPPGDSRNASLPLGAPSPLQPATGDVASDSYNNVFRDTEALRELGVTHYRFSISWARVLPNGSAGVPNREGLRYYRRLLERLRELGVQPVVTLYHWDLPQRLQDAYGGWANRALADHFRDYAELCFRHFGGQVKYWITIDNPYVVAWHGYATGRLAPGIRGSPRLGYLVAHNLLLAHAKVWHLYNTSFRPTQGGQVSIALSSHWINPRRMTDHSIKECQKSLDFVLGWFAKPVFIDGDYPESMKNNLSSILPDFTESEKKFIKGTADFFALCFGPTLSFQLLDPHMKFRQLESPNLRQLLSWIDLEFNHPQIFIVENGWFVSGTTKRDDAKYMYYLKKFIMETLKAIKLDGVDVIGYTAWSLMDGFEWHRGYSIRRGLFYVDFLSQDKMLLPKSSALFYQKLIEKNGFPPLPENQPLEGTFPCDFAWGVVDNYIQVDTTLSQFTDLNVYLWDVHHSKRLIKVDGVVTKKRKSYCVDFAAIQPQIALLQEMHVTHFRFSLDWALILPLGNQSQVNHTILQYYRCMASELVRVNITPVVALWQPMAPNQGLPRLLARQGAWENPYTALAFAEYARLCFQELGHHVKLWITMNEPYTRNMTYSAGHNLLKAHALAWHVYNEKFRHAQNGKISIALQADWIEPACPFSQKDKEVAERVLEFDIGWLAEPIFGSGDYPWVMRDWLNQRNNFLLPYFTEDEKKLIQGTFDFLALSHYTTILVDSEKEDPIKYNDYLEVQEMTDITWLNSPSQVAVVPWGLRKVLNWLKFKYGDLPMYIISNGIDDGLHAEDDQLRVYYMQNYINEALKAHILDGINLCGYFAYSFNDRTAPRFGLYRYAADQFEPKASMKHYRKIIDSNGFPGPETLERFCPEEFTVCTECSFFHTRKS

Consider FGF23 (from UniProt Q9GZV9), for which the dissociation constant Kd (as a rule, the equilibrium constant for the complex coming apart) is 14 nM.
